The source of these data is the RNAGym collection of RNA variant scans (doi:10.1073/pnas.2313332121).

Sequences and labels used below:
B1: TPR t1 (parent)
chain: GACCAAUCUGCCCUCAGAGCUCGAGAACAUCUUCGGAUGCAGAGGAGGCAGGCUUCGGUGGCGCGAUAGCGCCAACGUCCUCAACCUCCAAUGCAUCCCACCACAUGAUGAUGCCUGAAGAGCCUUGGUUUUUUG

Variants of B1 are the subject of this data set. Put plainly: polymerase ribozyme fitness, log enrichment relative to wild type (log ratio); higher = more active; in vitro selection for triplet polymerase activity. Summed up: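 Mutant libraries of each subunit of a heterodimeric triplet polymerase ribozyme were built by PCR and transcribed. Each library went through one round of in vitro selection in triplicate: annealing with biotinylated primer, partner subunit and triplets, frozen incubation at −7 °C, gel excision of extended constructs, streptavidin-bead capture and RT-PCR. Input and output libraries were Illumina-sequenced; only genotypes with ≥10 input reads and ≥1 read per output were kept. Fitness is log2(genotype enrichment/wild-type enrichment), using inverse-variance-weighted replicate averages.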
On to GACCAAUCUGCCCUCAUAGCUCGAGAACAUCUUCGGAUGCAGAUGAGGGAGGCUUCGGUGGCGCGAUAGCGCCAACGUCCUCAACCUCCAAUGCAUCCCACCACAUGAUGAUGCCUGAAGAGCCUUGGUUUUUUG [G17U G44U C49G], for which the “polymerase ribozyme fitness (log ratio)” value was -5.1.

Take GACCAAUCUGCCCUCAUAGCUCGAGAACAUCUUCGGAUGCAGAGGAGGCAGGCUUCGGUGGCGCGAUAGCACCAACGUCCUCAUCCUCCAAUGCAGCCCACCACAUGAUGAUGCCUGAAGAGCCUUGUUCUUUUG [G17U G71A A84U U96G G128U U130C]: the “polymerase ribozyme fitness (log ratio)” value is -5.57.

For GACCAAUCUGCCCUCAUAGCUCGAGAACAUCUUCGGAUGCAGAGGAGGCAGGCUUCGGUGGCGCGAUAACGCCAACGUCCUCAACCUCCAAUGCAUCCCACCACAUGAUGAUGGCUGAAGAGCCUUGGUUUUUUG [G17U G69A C114G], the “polymerase ribozyme fitness (log ratio)” value was -5.6.

GACCAAUCUGCCCUCAUAGCUCGAGAACAUCUUCGGAUGCAGAGGAGGCAGGCUUCGGUGGCGCGAUAGCGCCAACGUCCUCAACCUCCAAUGCAUCCCACCACAUGAUGAUGACUGAAGAGCCUUGGUUUUUUG [G17U C114A]: the “polymerase ribozyme fitness (log ratio)” value is -5.05.

As to GACCAAUCUGCCCUCAUAGCUCGAGAACAUCUUCGGAUGCAGAGGAGGCAGGCUUCGGUGGCGCGAUAGCUCCAACGUCCCCAACCUCGAAUGCAUCCCACCACAUGAUGAUGCCUGAGGAGCCUUGAUUUUUUG [G17U G71U U81C C89G A119G G128A], the “polymerase ribozyme fitness (log ratio)” value is -4.58.

Turning to GACCAAUCUGCCCUCAUAGCUCGAGAACAUCUUCGGAUGCAGAGGAGGCAGGCUUCGGUGGCGCGAUAGCGCCAACGUCCUCAACCUCCAAUGCAUCCCACCACAUGAUGAUGCCUAAAGAGCCUUGGUUUUUUG [G17U G117A], the “polymerase ribozyme fitness (log ratio)” value was -3.31.

Regarding GACCAAUCUGCCCUCAUAGCUCGAGAACAUCUUCGGAUGCAGAGGAGGCAGGCUUCGGUGACGCGAUAGCGCCAACGUCCUCAACCUUCAAUGCAUCCCACCAAAUGAUGAUGCCUGAAGAGCCUUGGUUUUAUG [G17U G61A C88U C104A U133A], the “polymerase ribozyme fitness (log ratio)” value is -4.19.

As for GACCAAUCUGCCCUCAUAGCUCGAGAACAUCUUCGGAUGCAGAGGAGGCAGGCUUCGGUGGCGCGAUAUCGCCAACGUCCUCAACCUCCAAUGCAUCCCACCACAUGAUGAUGCCUGAAGAGCCUUGGUUUUUUG [G17U G69U], the “polymerase ribozyme fitness (log ratio)” value was -0.0598.

On to GACCAAUCUGCCCUCAUAGCUCGAGAACAUCUUCGGAUGCAGAGGAGGCAGGCUUCGGUGGCGCGAUAGCGCCAACGUCCUCAACCUCCAAUGCAUCCCACCACAUGAUGAUGCCUGAACAGCCUUGGUUUUUUG [G17U G120C], for which the “polymerase ribozyme fitness (log ratio)” value is -1.09.

In the case of GACCAAUCUGCCCUCAUAGCUCGAGAACAUCUUCGGAUGCAGAGCAGGCAGGCUUCGGUGGUGCGAUAGCGCCAACGUCCUCAACCUCCAAUGCAUCCCACCACAUGAUGAUGCCUGAAGAGCCUUGGUUUUUUG [G17U G45C C62U], the “polymerase ribozyme fitness (log ratio)” value is -4.56.

On to GACCAAUCUGCCCUCAUAGCUCGAGAACAUCUUCGGAUGCAGAGGAGGCAGUCUUCGGUGGCGCGAUAGCGCCAACGUCCUCGAUCUCCAAUGCAUCCCACCACAUGAUGAUGCCUGAAUAGCCUUGGUUUUUUG [G17U G52U A83G C85U G120U], for which the “polymerase ribozyme fitness (log ratio)” value is -3.18.

For GACCAAUCUGCCCUCAUAGCUCGAGAACAUCUUCGGAUGCAGAGGAGGCAGGCUUCGGUGGCGCGAUAGCGCCAACGUCCUCAACCUCCAAUGCAUCCCACCACAUGAUGAUGCCUGAAGAGCGUUGCUUUUUUG [G17U C124G G128C], the “polymerase ribozyme fitness (log ratio)” value was -1.84.

GACCAAUCUGCCCUCAUAGCUCGAGAACAUCUUCGGAUGCAGAGAAGGCAGGCUUCGGUCGCGCGAUAGCGCCAACGUCCUCAACCUCCAAUGCAUCCCACCACAUGAUGAUGCCUGAAGAGCCUUGGUUUUUUG [G17U G45A G60C]: the “polymerase ribozyme fitness (log ratio)” value is -2.05.

Regarding GACCAAUCUGCCCUCAUAGCUCGAGAACAUCUUCGGAUGCAGAGGAGGCAGGCUUCGGUGACGCGAUAGCGACAACGUCCUCAACCUCAAAUGCAUCCCACCACAUGAUGAUGCCUGAAGAGCCUUGGUUUUUUG [G17U G61A C72A C89A], the “polymerase ribozyme fitness (log ratio)” value is -4.9.

As for GACCAAUCUGCCCUCAUAGCUCGAGAACAUCUUCGGAUGCAGAGGAGGCAAGCUUCGGUGGCGCGAUAGCGCCAACGUCCUCAACCUCCAAUGCAUCCCACCACAUGAUGAUGCCUGAAGUGCCUUGGUUUUUUG [G17U G51A A121U], the “polymerase ribozyme fitness (log ratio)” value is -3.76.

Take GACCAAUCUGCCCUCAUAGCUCGAGAACAUCUUCGGAUGCAAAGGAGGCAGGCUUCGGUGGCGCGAUAGCGCCAACGUCCUCAACCUCCAAUGCAUCCCACCACAUGAUGAUGCCUGAAGAGCCUUGGUUUUUUG [G17U G42A]: the “polymerase ribozyme fitness (log ratio)” value was -3.86.

As to GACCAAUCUGCCCUCAUAGCUCGAGAACAUCUUCGGAUGCAGACGAGGCAGGCUUCUGUGGCGCGAUAGCGCCAACGUCCUCAACCUCCAAUGCAUCCCACCACAUGAUGACGCCUGAAGAGCCUUGGUUUUUUA [G17U G44C G57U U112C G135A], the “polymerase ribozyme fitness (log ratio)” value was -1.76.

Take GACCAAUCUGCCCUCAUAGCUCGAGAACAUCUUCGGAUGCAGAGGAGGCAGGCUUCGGUGGCGCGAUAGGGCCAACGUCCUGAACCUCCAAUGCAUCCCACCACAUGAUGAUGCCUGAAGAGCAUUGGUUGUUUG [G17U C70G C82G C124A U131G]: the “polymerase ribozyme fitness (log ratio)” value is -4.66.

Regarding GACCAAUCUGCCCUCAUAGCUCGAGAACAUCUUCGGAUGCAGAGGAGGCAGGCUUCGGUGGCGCGAUAGCGCCAACGUCCUCAAACUCCAAUGCAUCCCACCACAUGAUGAUGCCUGAAGAGCCUUGGUUUUUUG [G17U C85A], the “polymerase ribozyme fitness (log ratio)” value is -3.6.

For the variant GACCAAUCUGCCCUCAUAGCUCGAGAACAUCUUCGGAUGCAGAGGAGGCAGGCUUCGGUGGCGCGAUAGCGCCAACGUCCUCAACCUCCAAUGCAUCCCAUCACAUGAUGAUGCCUGAAGAGCCUUGGUUUUUUG [G17U C101U], the “polymerase ribozyme fitness (log ratio)” value was -2.53.

Turning to GACCAAUCUGCCCUCAUAGCUCGAGAACAUCUUCGGAUGCAGAGGAGGCAGGCUCCGGUGGCGCGAUAGCGCCAACGUCCUCAACCUCCAAUGCAUCCCACCACAUGAUGAUGCCUGAAGAGCCUUGGUUUUUUG [G17U U55C], the “polymerase ribozyme fitness (log ratio)” value is -2.57.
